From patent publication US20230203188A1 come the findings set out here.

The target in assay [1] is full-length cyno SIRPβ1 (XP_005568598, clone PA2), on CHO cells (cynomolgus monkey). The experiment in a line: flow cytometry on CHO cells expressing the target. For orientation: In flow cytometry, cells or beads pass a laser one at a time.
In assay [2] the target is full-length cyno SIRPα (XP_015313155, clone P3HD10), on CHO cells (cynomolgus monkey). The assay is described as follows: flow cytometry on CHO cells expressing the target.
Assay [3] has as its target ED-tagged human SIRPα V2 receptor on Jurkat SIRPα-V2 signaling cells (human) (UniProt P78324). The experiment in a line: cell-based or functional assay.
For assay [4], the target named is ED-tagged human SIRPα V1 receptor on Jurkat SIRPα-V1 signaling cells (human) (UniProt P78324). The experiment in a line: cell-based or functional assay.
ED-tagged human SIRPα V1 receptor on Jurkat SIRPα-V1 signaling cells (human), sequence (P78324 31-504): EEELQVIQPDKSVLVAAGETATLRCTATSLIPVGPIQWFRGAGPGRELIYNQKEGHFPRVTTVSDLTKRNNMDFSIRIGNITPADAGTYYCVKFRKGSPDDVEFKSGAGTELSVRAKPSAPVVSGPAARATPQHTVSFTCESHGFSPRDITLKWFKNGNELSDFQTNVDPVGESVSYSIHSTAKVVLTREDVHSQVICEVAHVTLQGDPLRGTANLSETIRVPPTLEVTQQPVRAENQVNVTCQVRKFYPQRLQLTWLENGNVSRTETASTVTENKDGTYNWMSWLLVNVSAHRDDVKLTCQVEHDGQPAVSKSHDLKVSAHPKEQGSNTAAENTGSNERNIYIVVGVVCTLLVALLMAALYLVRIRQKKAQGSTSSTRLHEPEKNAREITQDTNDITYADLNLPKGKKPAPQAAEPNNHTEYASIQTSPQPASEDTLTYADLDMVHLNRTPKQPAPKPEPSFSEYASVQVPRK

KWAR23 (antibody), sequence (VH): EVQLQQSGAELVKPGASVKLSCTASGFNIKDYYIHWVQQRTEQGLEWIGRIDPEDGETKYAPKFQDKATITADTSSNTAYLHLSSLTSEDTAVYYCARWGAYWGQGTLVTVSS
KWAR23 (antibody), sequence (VL): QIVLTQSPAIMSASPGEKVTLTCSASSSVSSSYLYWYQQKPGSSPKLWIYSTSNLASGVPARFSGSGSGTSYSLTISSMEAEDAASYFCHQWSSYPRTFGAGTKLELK
ED-tagged human SIRPα V2 receptor on Jurkat SIRPα-V2 signaling cells (human), sequence (P78324 31-504): as the sequence (P78324 31-504) above

In the case of KWAR23 (antibody), the EC50 came to 0.2 nM in assay [1] and 0.5 nM in assay [2]. Besides, the IC50 of SIRPα signaling (SHP-1 recruitment, enzyme fragment complementation, Jurkat reporter cells) in assay [3] and in assay [4] was 0.04 nM each time.

As usually defined, the EC50 is the concentration at which the effect is half-maximal. Lower therefore signals greater potency.
